According to publication PMC11565477 (FASEB journal : official publication of the Federation of …, 2021):
Where “and” joins values, the source holds several entries; their conditions need not be identical. Equal entries are not always repeated.

B1: purified NPTX1-flag-strep (pEB Multi Neo Nptx1-flag-TEV-strep-IRES-GFP, plasmid #4) (natural protein, mouse, UniProt Q62443 23-432, looked up)
chain: QDFGPTRFICTSVPVDADMCAASVAAGGAEELRSNVLQLRETVLQQKETILSQKETIRELTTKLGRCESQSTLDSGPGEARSGGGRKQPGSGKNTMGDLSRTPAAETLSQLGQTLQSLKTRLENLEQYSRLNSSSQTNSLKDLLQSKIDDLERQVLSRVNTLEEGKGGPKNDTEERAKIESALTSLHQRISELEKGQKDNRPGDKFQLTFPLRTNYMYAKVKKSLPEMYAFTVCMWLKSSAAPGVGTPFSYAVPGQANELVLIEWGNNPMEILINDKVAKLPFVINDGKWHHICVTWTTRDGVWEAYQDGTQGGNGENLAPYHPIKPQGVLVLGQEQDTLGGGFDATQAFVGELAHFNIWDRKLTPGEVYNLATCSSKALSGNVIAWAESQIEIFGGATKWTFEACRQIN
B2: purified NPTX1-flag (pEB Multi Neo Nptx1-flag-IRES-GFP, plasmid #3) (natural protein, mouse, UniProt Q62443 23-432, looked up)
chain: B1 chain
B3: purified HA-C1QL3 (pEB Multi Neo HA-C1ql3-IRES-GFP) (natural protein, mouse, UniProt Q9ESN4 21-255, looked up)
chain: HYEMLGTCRMVCDPYGGTKAPSTAATPDRGLMQSLPTFIQGPKGEAGRPGKAGPRGPPGEPGPPGPVGPPGEKGEPGRQGLPGPPGAPGLNAAGAISAATYSTVPKIAFYAGLKRQHEGYEVLKFDDVVTNLGNHYDPTTGKFTCSIPGIYFFTYHVLMRGGDGTSMWADLCKNNQVRASAIAQDADQNYDYASNSVVLHLEPGDEVYIKLDGGKAHGGNNNKYSTFSGFIIYAD

Assays:
SEC = molecular target: the molecule itself; test: SEC
native gel or EMSA = molecular target: the molecule itself; test: native gel or EMSA
[1] = molecular target: B2; test: immunostaining of cells or tissue

Row | binding result [1] | Binder | stoichiometry N (SEC) | stoichiometry N (native gel or EMSA)
1 | – | B1 | ~15 | –
2 | – | B2 | – | 15
3 | binds | B3 | – | 6 and 18
